{"source": "patent US6037145", "biological_target": "Z-Phe-Leu-Glu-4-nitranilide"}
{"substance": "recombinant V8 protease (V8D) (enzyme)", "values": [{"measurement": "enzyme activity after refolding", "value": 30, "unit": "µg/mL"}]}
